In article PMC3699407 (Nature biotechnology, 2012):

Molecular target: the molecule itself
Test: SEC

B1: wild-type pea cytosolic ascorbate peroxidase (APX) (enzyme)
chain: GKSYPTVSPDYQKAIEKAKRKLRGFIAEKKCAPLILRLAWHSAGTFDSKTKTGGPFGTIKHQAELAHGANNGLDIAVRLLEPIKEQFPIVSYADFYQLAGVVAVEITGGPEVPFHPGREDKPEPPPEGRLPDATKGSDHLRDVFGKAMGLSDQDIVALSGGHTIGAAHKERSGFEGPWTSNPLIFDNSYFTELLTGEKDGLLQLPSDKALLTDSVFRPLVEKYAADEDVFFADYAEAHLKLSELGFAEA
stoichiometry N: 2
